Experimental data reported in patent US12233132B2, “Polyoxazoline-lipid conjugates and lipid nanoparticles and pharmaceutical compositions including same” (Serina Therapeutics, Inc., priority 2021, dated 2025).

Columns and labels:
[1] = Hydrolysis kinetics of POZ-lipid conjugates in human plasma; format: in vitro ADME; conditions: for Half-Life 50% Human Plasma: 50% human plasma diluted in PBS, 37° C.; for rate of hydrolysis in plasma, ester versus ether linkages: compared with ether linkages (Compounds 17a, 17b and 17c)
Experimental: (§1) These solutions were spiked into the PBS or rat or human plasma media and allowed to incubate at 37° C. Samples were removed from hydrolysis media at different time intervals and quenched by addition of chilled 0.2% formic acid in methanol. […] The POZ-lipid conjugates were detected by UV absorption at 210 nm, and its breakdown and degradation metabolites were detected followed by mass spectrometry.

[2] = Hydrolysis kinetics of POZ-lipid conjugates in rat plasma; format: in vitro ADME; conditions: 50% rat plasma diluted in PBS, 37° C.
Experimental: as §1

| Substance | Half-Life 50% Human Plasma [1] | rate of hydrolysis in plasma, ester versus ether linkages [1] | Half-Life 50% Rat Plasma [2] |
| --- | --- | --- | --- |
| PEOZ 2K DMG-(triazole-2-propionate) [Compound 19b] | 5 h | faster rate | 1 h |
| PEOZ-(triazole-3-propionyl-DMG) 2K [Compound 19c] | 7 h | faster rate | <1 h |
